Laboratory results as given in patent US20240309087A1 (SHANGHAI JUNSHI BIOSCIENCES, published 2024).
Numbering of substitutions follows the chain as printed. Read-outs that look alike come from different tables or passages of the source.

Assays:
[1] = biological target: T1, hCD112R mFC recombinant protein (human; murine, UniProt Q6DKI7 41-160); test: Biacore T200, antibody captured, hCD112R mFc injected
T1 construct: range 41-160; expressed in 293E cells; also called hCD112R ECD mFC; hCD112R-ECD-mFC; not shown: murine IgG2a Fc domain (MX2-mFc vector)
T1 sequence (looked up): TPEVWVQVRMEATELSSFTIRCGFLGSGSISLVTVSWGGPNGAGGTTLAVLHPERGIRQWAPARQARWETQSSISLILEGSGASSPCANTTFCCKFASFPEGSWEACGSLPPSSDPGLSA
Method: Biacore T200 was used to assay the binding affinity of the anti-CD112R hybridoma antibodies for the recombinant hCD112R mFc protein. […] antibody fragments (Jackson ImmunoResearch) were coupled to the surface of a CM5 chip, and the anti-CD112R hybridoma antibodies were each captured by using the chip, after which recombinant hCD112R mFc proteins at different concentrations were injected into the CM5 chip.

[2] = biological target: T2, recombinant cynomolgus monkey CD112R antigen (cynomolgus monkey, UniProt A0A2K5WVV8 1-322); test: ELISA, coated cynomolgus monkey CD112R
T2 construct: bought
T2 sequence: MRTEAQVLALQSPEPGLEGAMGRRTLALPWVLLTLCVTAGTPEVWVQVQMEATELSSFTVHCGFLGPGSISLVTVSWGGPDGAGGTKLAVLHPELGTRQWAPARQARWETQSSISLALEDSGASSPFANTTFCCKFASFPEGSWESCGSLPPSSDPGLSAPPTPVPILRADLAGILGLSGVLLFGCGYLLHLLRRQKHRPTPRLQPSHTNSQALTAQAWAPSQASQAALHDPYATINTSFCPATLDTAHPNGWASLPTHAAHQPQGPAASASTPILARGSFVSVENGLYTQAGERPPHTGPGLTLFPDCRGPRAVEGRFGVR
Method: (§1) A plate was coated with a recombinant cynomolgus monkey CD112R antigen (Acrobiosystems, Cat No. PVG-C5259) at a fixed concentration, and the chimeric anti-CD112R antibodies diluted in a gradient (initial concentration: 1 μg/mL, 2.5-fold gradient dilution, 12 concentration gradients in total) were added to bind to the antigen. Horseradish peroxidase (HRP)-conjugated mouse anti-human IgG4 Fc (Southern Biotech, 9200-05) was subjected to a 5000-fold dilution and used as a detection antibody for detection. The color development was performed with 0.1 mg/mL TMB, and finally stopped with 2 M hydrochloric acid. The plate was read at 420 nm/620 nm. EC₅₀ was obtained by fitting with a four-parameter logistic regression (4PL) model.

[3] = biological target: T3, human CD112R on CHO-CD112R cells (human, UniProt Q6DKI7 41-326); test: FACS on CHO-CD112R cells; EC50 Ref/EC50 antibody
T3 construct: whole, on cells; also called hCD112R; PVRIG
T3 sequence (looked up): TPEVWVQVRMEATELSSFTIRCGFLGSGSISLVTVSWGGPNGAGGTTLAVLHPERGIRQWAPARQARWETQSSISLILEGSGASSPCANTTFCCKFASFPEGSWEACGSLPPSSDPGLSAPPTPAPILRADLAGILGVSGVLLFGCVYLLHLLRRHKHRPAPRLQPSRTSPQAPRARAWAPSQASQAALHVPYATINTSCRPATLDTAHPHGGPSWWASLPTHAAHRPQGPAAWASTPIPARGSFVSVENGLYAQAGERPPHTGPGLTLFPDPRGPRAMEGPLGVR
Method: (§2) CHO-CD112R cells (constructed in-house by Junshi, the amino acid sequence of CD112R in the construction of stable cell lines overexpressing CD112R comprises amino acids at positions Met1-Arg326 under NCBI accession No. Q6DKI7) overexpressing human CD112R were incubated with each of the chimeric anti-CD112R antibodies at different concentrations (initial concentration: 50 μg/mL, 5-fold dilution, 12 concentration gradients in total) at 4° C. for 30 min, and then washed and incubated with a fluorescence-labeled secondary antibody at 4° C. for 30 min in the dark. Finally, the cells were collected by using a flow cytometer (BD Canto II), and the fluorescent antibodies bound to the cell surface were detected. Raw data were analyzed by using FlowJo to obtain MFI values, the antibody dose-dependent binding curves were fitted by using GraphPad (FIG. 3, a and b) and EC₅₀ was calculated (Table 3). The positive control and the negative control were Ref (anti-CD112R antibody, University of Colorado, obtained by expression and purification according to the sequences in US20170240613) and anti-KLH hu-IgG4 antibody, respectively.

[4] = biological target: T4, human CD112R on Jurkat CD112R effector cells (human, UniProt Q6DKI7 1-326); test: cell-based or functional assay
T4 sequence (looked up): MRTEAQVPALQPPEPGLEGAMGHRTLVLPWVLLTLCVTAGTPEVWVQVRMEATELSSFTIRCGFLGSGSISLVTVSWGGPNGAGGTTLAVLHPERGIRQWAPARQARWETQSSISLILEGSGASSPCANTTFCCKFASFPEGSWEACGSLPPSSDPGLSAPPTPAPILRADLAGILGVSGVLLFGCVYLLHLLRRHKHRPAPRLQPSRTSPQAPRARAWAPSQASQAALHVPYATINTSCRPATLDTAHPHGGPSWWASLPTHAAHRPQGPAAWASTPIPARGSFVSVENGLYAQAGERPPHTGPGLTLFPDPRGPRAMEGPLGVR

[5] = biological target: T2, recombinant cynomolgus monkey CD112R …; test: ELISA, coated cynomolgus monkey CD112R; EC50 Ref/EC50 antibody
Method: as §1

[6] = biological target: T3, human CD112R on CHO-CD112R cells; test: FACS on CHO-CD112R cells
Method: as §2

[7] = biological target: T1, hCD112R mFC recombinant protein; test: FACS competition, hCD112R mFc on CHO CD112 cells; IC50 COM701/IC50 antibody
In short: (§3)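 CHO cells overexpressing human CD112 were co-incubated 30 min at 4 °C with hCD112R mFc (5 μg/mL) and humanized anti-CD112R antibodies (from 100 μg/mL, 3-fold, 10 points). Bound fusion protein detected with anti-mouse IgG Fc secondary by flow cytometry; IC50 from four-parameter fit of MFI. COM701 served as positive control, anti-KLH hu-IgG4 as negative.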

[8] = biological target: T4, human CD112R on Jurkat CD112R effector …; test: cell-based or functional assay; remark: listed apart in the source
[9] = biological target: T1, hCD112R mFC recombinant protein; test: ELISA, coated hCD112R-ECD-mFC; EC50 COM701/EC50 antibody
In short: (§4)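 Plates coated with hCD112R-ECD-mFC at 1.5 μg/mL; humanized antibodies titrated from 1 μg/mL, 2.5-fold, 12 points. Bound antibody detected with HRP anti-human IgG Fc and TMB, read at 420/620 nm; EC50 from 4PL fit, COM701 and anti-KLH hu-IgG4 as controls.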

[10] = biological target: T1, hCD112R mFC recombinant protein; test: ELISA, coated hCD112R-ECD-mFC
In short: as §4

[11] = biological target: T1, hCD112R mFC recombinant protein; test: FACS competition, hCD112R mFc on CHO CD112 cells
In short: as §3

B1: 8H8.1 (antibody, V domains shown)
VH: EVKLVESGGGLVKPGGSLKVSCAASGFTFSDYPMSWVRQTPDKRLEWVACIDTDENTYYPDSVKGRFTISRDNGRNIVNLQMSSLRSEDAAMYYCARGWDDYAAWFAYWGQGTLVTVSA
VL: ENVLTQFPAIMSVFLGERVTMSCRASSSVNYMYWYQQKSDASPKLWIYHTSNLAPGVPARFSGSGSGNSYSLTISSMEGEDAATYYCQQFTSSPWTFGGGTKLEIK
notes: murine hybridoma antibody
Kd [1]: 0.0588 nM

B2: Chi-36 (antibody, V domains shown)
VH: EVQLQQSGPELVKPGASVRISCKASGYTFTDYNMHWVKQSHGKSLEWIGYIYPYNGGTGHNQNFKSKATLTVDKSSSTAYMEFRSLTSDDSAVYYCAREDFRHEKMDYWGQGTSVTVSS
VL: DIQMTQSPASLSASVGETVTITCRTSDNIYVYLSWYQQKQGKSPQLLVYNAKTLTENVPSRFSGSGSGTQFSLKINSLQPEDFGSYYCQHHYGTPYTFGGGTKLEIK
notes: chimeric
EC50 [2]: 0.00391 µg/mL
Relative activity (%) [3]: 478%
EC50, CD112R/CD112 reporter [4]: 0.0306 µg/mL
Relative activity (%), EC50 Ref/EC50 antibody [4]: 1060%
Relative activity (%) [5]: 89.6%
EC50 [6]: 0.351 µg/mL

B3: Chi-45 (antibody, V domains shown)
VH: DVKLVESGGGLVKLGGSLKLSCAASGFTFSSYHMSWVRQTPEKRLELVAAINSNVISTYYLDTVKGRFTISRDNAKNTLYLQMSSLKSEDTALYYCARHEDYYGFAMDYWGQGTSVTVSS
VL: SIVMTQTPKFLLVSAGDRVTITCKASQSVSNDVAWYQEKPGQSPKLLMYYVSHRFTGVPDRFTGSGYGTDFTFTINTVQAEDLAVYFCHQAYRSPWTFGGGTKLEIK
notes: chimeric
EC50 [2]: 0.00298 µg/mL
Relative activity (%) [3]: 231%
EC50, CD112R/CD112 reporter [4]: 0.0119 µg/mL
Relative activity (%), EC50 Ref/EC50 antibody [4]: 2710%
Relative activity (%) [5]: 118%
EC50 [6]: 0.726 µg/mL

B4: Chi-72 (antibody, V domains shown)
VH: B3 VH with K3Q, A23V, V37I, V55D, S57N, N74I, Y80H
VL: DIQLTQSPASLSVSVGETVTITCRVSANIYSNLVWYHQRQGKSPQLLVYGGTNLADGVPSRFSGSGSGTQFSLKINSLQSEDFGSYHCQHFWSTPYTFGGGTKLEIK
notes: chimeric
Relative activity (%) [3]: 35%
EC50 [6]: 12.3 µg/mL

B5: Chi-54 (antibody, V domains shown)
VH: B3 VH with V37I, V55G, S57N
VL: B3 VL with E38Q, H53N, H89Q
notes: chimeric
EC50 [2]: 0.00327 µg/mL
Relative activity (%) [3]: 3520%
EC50, CD112R/CD112 reporter [4]: 0.00746 µg/mL
Relative activity (%), EC50 Ref/EC50 antibody [4]: 4210%
Relative activity (%) [5]: 107%
EC50 [6]: 0.122 µg/mL

B6: Chi-63 (antibody, V domains shown)
VH: DVKLVESGGGLVKLGGSLKLSCAASGFTFSSYHMSWVRQTPEKRLELVAAISRDGDSTYYPDTVKGRFTISRDDAENTLYLQMSSLKSEDTALYYCSRHEDYFGFAMDSWGQGTSVTVSS
VL: B3 VL with S30T, E38Q, H53N, R54H, F55Y, T63I, N76S, H89Q
notes: chimeric
EC50 [2]: 0.00436 µg/mL
Relative activity (%) [3]: 805%
EC50, CD112R/CD112 reporter [4]: 0.0174 µg/mL
Relative activity (%), EC50 Ref/EC50 antibody [4]: 1490%
Relative activity (%) [5]: 96.1%
EC50 [6]: 0.531 µg/mL

B7: Hu33 (antibody, IgG4, V domains shown)
VH: EVQLVESGGGLVQPGGSLRLSCAASGFTFSSYHMSWVRQAPGKGLELVAAISRDGDSTYYPDTVKGRFTISRDDAENSLYLQMNSLRAEDTAVYYCSRHEDYFGFAMDSWGQGTLVTVSS
VL: EIVMTQSPPTLSLSPGERVTLSCKASQSVSNDVAWYQEKPGQAPRLLIYYVSHRFTGIPARFSGSGSGTDFTLTISSLQPEDFAVYYCHQAYRSPWTFGQGTKLEIK
notes: humanized IgG4
Relative activity (%) [7]: 144%
EC50, CD112R/CD112 reporter [8]: 0.0341 µg/mL
Relative activity (%), EC50 COM701/EC50 antibody [8]: 157%
Relative activity (%) [9]: 174%
EC50 [10]: 0.00348 µg/mL
IC50 [11]: 2.48 µg/mL
